T1: mouse CD40 (mouse, UniProt P27512)
T1 chain: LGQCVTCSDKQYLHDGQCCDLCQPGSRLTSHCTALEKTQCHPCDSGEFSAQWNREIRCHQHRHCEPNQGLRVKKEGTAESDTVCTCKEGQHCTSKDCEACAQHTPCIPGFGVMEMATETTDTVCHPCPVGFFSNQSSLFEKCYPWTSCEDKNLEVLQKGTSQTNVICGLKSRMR

T2: mouse 4-1BB (mouse, UniProt P20334)
T2 chain: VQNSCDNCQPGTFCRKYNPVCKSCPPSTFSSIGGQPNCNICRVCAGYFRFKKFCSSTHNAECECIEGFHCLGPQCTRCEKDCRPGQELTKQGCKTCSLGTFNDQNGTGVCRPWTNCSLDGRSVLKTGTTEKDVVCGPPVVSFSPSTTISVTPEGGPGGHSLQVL


Columns and labels:
mouse CD40 = molecular target: T1, mouse CD40; assay: other, cells transiently overexpressing target
mouse 4-1BB = molecular target: T2, mouse 4-1BB; assay: other, cells transiently overexpressing target

binding result (mouse CD40)	binding result (mouse 4-1BB)	Binder
no binding	–	GEN1042 (CD40 arm) (antibody, V domains shown) VH: EVQLVQSGAEVKKPGASVKVSCKTSGYTFTEYIMHWVRQAPGQGLEWMGGIIPNNGGTSYNQKFQGRVTMTVDKSTSTGYMELSSLRSEDTAVYYCTRREVYGRNYYALDYWGQGTLVTVSS VL: DIQMTQSPSSLSASVGDRVTITCSASQGINNYLNWYQQKPGKAVKLLIYYTSSLHSGVPSRFSGSGSGTDYTFTISSLQPEDIATYYCQQYSNLPYTFGGGTKVEIK
–	no binding	GEN1042 (CD137 arm) (antibody, V domains shown) VH: EVQLVESGGGLVQPGRSLRLSCTASGFSLNDYWMSWVRQAPGKGLEWVGYIDVGGSLYYAASVKGRFTISRDDSKSIAYLQMNSLKTEDTAVYYCARGGLTYGFDLWGQGTLVTVSS VL: DIVMTQSPSSLSASVGDRVTITCQASEDISSYLAWYQQKPGKAPKRLIYGASDLASGVPSRFSASGSGTDYTFTISSLQPEDIATYYCHYYATISGLGVAFGGGTKVEIK

From patent US20260374888 (published 2026)
